Assay results as given in patent US10005817.

Biological target: PTH receptor (PTHR1) (human) (UniProt Q03431)
Test: cell-based or functional assay

PTH receptor (PTHR1) (human), sequence (Q03431 27-593): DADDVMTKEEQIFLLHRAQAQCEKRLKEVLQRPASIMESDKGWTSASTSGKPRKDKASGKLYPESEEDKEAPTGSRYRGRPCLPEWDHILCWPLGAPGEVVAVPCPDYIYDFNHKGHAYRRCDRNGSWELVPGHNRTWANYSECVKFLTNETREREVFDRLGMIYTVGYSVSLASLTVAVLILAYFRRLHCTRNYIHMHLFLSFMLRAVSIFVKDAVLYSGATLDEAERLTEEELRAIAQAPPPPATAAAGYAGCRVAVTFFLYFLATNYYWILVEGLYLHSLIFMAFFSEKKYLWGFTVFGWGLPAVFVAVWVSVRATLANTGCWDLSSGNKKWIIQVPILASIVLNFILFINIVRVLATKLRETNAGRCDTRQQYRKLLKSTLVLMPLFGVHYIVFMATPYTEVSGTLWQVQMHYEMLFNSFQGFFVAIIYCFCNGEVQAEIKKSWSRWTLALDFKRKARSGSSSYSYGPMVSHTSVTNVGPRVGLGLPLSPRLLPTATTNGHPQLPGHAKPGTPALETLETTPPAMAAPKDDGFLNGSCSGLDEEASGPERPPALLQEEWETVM

maximal response: 105%
Substance: PTH (internal standard) (ligand)
